# Measured values taken from paper PMC11580931 (bioRxiv, 2024).
# Residue numbers refer to the chain shown, from its start. In names and notes the source's numbering stands.
# T1: 3-pHis peptide (biotin-aminocaproic acid-AGAG-3-pHis-AGAG)
# T1 sequence (peptide, biotin-aminocaproic acid on the N-terminus; 3-phosphohistidine at position 5): AGAGHAGAG
# B1: hSC44.20.N32Y^L IgG (antibody, V domains shown)
# VH: EVQLVESGGGLVQPGGSLRLSCTASGFSIDSYGFSWVRQAPGKGLEHIGYLTAGGRAFYASWAKSRSTITRNTNENTVTLKMNSLRAEDTAVYYCAKLGTGSRFAIWGQGTLVTVSS
# VL: DIQMTQSPSSLSASVGDRVTITCRASQSVWRNKYVAWYQQKPGKAPKRLIYAIASLYSGVPSRFSGSGSGTDFTLTISSLQPEDFATYYCVGHYGSENDAYYAFGQGTKVEIK
# B2: hSC44.20.N32F^L IgG (antibody, V domains shown)
# VH: B1 VH
# VL: B1 VL with Y34F
# B3: hSC44.20 IgG (antibody, V domains shown)
# VH: B1 VH
# VL: B1 VL with Y34N
# B4: hSC44 IgG (humanized version of rSC44) (antibody, V domains shown)
# VH: B1 VH with T100S, S102N, R103P, F104V
# VL: B1 VL with Y34N
# B5: hSC44.3 IgG (antibody, V domains shown)
# VH: EVQLVESGGGLVQPGGSLRLSCTASGFSIDSYGFSWVRQAPGKGLEHIGYLTAGGRAFYASWAKSRSTITRNTNENTVTLKMNSLRAEDTAVYYCAKIGSGSPVAIWG
# VL: B1 VL with Y34N
# B6: hSC44.8 IgG (antibody, V domains shown)
# VH: B5 VH with S100T, P103R
# VL: B1 VL with Y34N
# B7: hSC44.31 IgG (antibody, V domains shown)
# VH: B1 VH with S102T, R103P
# VL: B1 VL
# B8: hSC44.22 IgG (antibody, V domains shown)
# VH: B5 VH with I98L, S100T, S102T
# VL: B1 VL with Y34N
# B9: hSC44.1 IgG (antibody, V domains shown)
# VH: B1 VH with R103P, F104I
# VL: B1 VL with Y34N
# B10: hSC44.13 IgG (antibody, V domains shown)
# VH: B5 VH with I98L, S100T
# VL: B1 VL with Y34N
# B11: hSC44.28 IgG (antibody, V domains shown)
# VH: B5 VH with I98L, S100T, V104L
# VL: B1 VL with Y34F
# B12: rSC44 IgG (rabbit SC44-8 anti-3-pTza/3-pHis mAb) (antibody, V domains shown)
# VH: QSVKESGRGLVQPGGSLTLTCTASGFSIDSYGFSWVRQAPGKGLEHIGYLTAGGRAFYASWAKSRSTITRNTNENTVTLKMTSLTAADTATYFCAKLGSGNPVAIWGPGTLVTVSS
# VL: QVLTQTPSFTSAAVGGTVTINCQSSQSVWRNKNLAWYQQKPGQPPKRLIYAIATLDSGVPSRFSGSGSGTQFTLTISDVQCDDAATYYCVGHYGSENDAYYAFGGGTEVVVK
# Molecular target: T1, 3-pHis peptide (biotin-aminocaproic acid-AGAG-3-pHis-AGAG)
# Assay: BLI
Binder,Kd,koff,kon
B1,9.5 nM,2.61e-05 s⁻¹,8880 M⁻¹ s⁻¹
B2,1.68 nM,1.64e-05 s⁻¹,13900 M⁻¹ s⁻¹
B3,21 nM,–,75500 M⁻¹ s⁻¹

# Molecular target: 3-pTza peptide (Biotin-AminocaproicAcid-AGAG-3-pTza-AGAG)
# Assay: BLI
Binder,Kd,koff,kon
B4,1.2 nM,–,–
B5,0.352 nM,1.43e-05 s⁻¹,40700 M⁻¹ s⁻¹
B1,< 0.001 nM,–,35100 M⁻¹ s⁻¹
B6,0.185 nM,6.66e-05 s⁻¹,359000 M⁻¹ s⁻¹
B7,2.71 nM,3.98e-05 s⁻¹,14700 M⁻¹ s⁻¹
B8,0.495 nM,4.49e-05 s⁻¹,90600 M⁻¹ s⁻¹
B9,0.588 nM,8.32e-05 s⁻¹,141000 M⁻¹ s⁻¹
B10,0.405 nM,7.37e-05 s⁻¹,182000 M⁻¹ s⁻¹
B2,1.54 nM,5.73e-05 s⁻¹,37300 M⁻¹ s⁻¹
B3,< 0.001 nM,–,257000 M⁻¹ s⁻¹
B11,1.21 nM,–,24900 M⁻¹ s⁻¹

# Molecular target: 3-pHis form of ACLY (120 kDa) (Homo sapiens (HEK293T, endogenous), UniProt P53396, 3-phosphohistidine (residue not stated))
# Sequence (P53396 whole entry): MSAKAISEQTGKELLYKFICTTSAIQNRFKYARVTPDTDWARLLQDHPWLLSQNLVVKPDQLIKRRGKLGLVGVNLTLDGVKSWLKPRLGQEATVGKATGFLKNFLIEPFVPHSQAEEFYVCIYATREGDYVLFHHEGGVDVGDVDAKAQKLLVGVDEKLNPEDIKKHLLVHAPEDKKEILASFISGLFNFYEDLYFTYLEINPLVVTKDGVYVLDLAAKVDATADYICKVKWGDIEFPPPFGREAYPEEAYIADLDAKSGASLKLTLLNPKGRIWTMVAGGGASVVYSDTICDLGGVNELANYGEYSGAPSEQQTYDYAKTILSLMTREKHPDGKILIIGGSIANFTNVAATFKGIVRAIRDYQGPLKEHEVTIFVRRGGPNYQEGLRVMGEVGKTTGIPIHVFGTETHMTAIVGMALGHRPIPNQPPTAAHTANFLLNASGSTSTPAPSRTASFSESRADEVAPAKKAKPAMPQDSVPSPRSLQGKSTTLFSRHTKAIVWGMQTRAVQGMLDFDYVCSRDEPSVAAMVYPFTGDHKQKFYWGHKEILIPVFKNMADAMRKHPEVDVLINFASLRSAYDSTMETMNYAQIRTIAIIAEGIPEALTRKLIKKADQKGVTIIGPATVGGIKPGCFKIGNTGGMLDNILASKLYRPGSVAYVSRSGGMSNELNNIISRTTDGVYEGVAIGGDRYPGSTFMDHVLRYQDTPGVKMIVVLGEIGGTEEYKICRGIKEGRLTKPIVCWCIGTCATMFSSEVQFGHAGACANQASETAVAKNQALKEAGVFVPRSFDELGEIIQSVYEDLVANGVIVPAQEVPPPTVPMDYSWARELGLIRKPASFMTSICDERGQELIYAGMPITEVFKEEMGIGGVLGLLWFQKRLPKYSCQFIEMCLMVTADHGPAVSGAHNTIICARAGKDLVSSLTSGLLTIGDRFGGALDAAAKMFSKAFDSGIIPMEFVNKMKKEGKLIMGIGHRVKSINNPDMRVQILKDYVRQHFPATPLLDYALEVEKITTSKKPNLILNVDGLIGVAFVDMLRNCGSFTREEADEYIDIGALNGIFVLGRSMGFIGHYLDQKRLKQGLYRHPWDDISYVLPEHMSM
# Assay: immunoblot
row,Binder,binding result
1,B12,binds
2,B2,binds
3,B3,binds
